The labels stand for the following.
B1: hFN10/B (designed binder)
chain: SDVPRDLEVVAATPTSLLISWDAPAVTVRYYRITYGETGGNSPVQEFTVPGSKSTATISGLKPGVDYTITVYAVIARGDWNDGSKPISINY
notes: hFN10 with the three residues flanking RGDWN changed to match barbourin; His tag as for hFN10
B2: wild-type integrin αVβ3 on cells (K562-αVβ3, M21, HEK293T) (receptor)
chain 1: FNLDVDSPAEYSGPEGSYFGFAVDFFVPSASSRMFLLVGAPKANTTQPGIVEGGQVLKCDWSSTRRCQPIEFDATGNRDYAKDDPLEFKSHQWFGASVRSKQDKILACAPLYHWRTEMKQEREPVGTCFLQDGTKTVEYAPCRSQDIDADGQGFCQGGFSIDFTKADRVLLGGPGSFYWQGQLISDQVAEIVSKYDPNVYSIKYNNQLATRTAQAIFDDSYLGYSVAVGDFNGDGIDDFVSGVPRAARTLGMVYIYDGKNMSSLYNFTGEQMAAYFGFSVAATDINGDDYADVFIGAPLFMDRGSDGKLQEVGQVSVSLQRASGDFQTTKLNGFEVFARFGSAIAPLGDLDQDGFNDIAIAAPYGGEDKKGIVYIFNGRSTGLNAVPSQILEGQWAARSMPPSFGYSMKGATDIDKNGYPDLIVGAFGVDRAILYRARPVITVNAGLEVYPSILNQDNKTCSLPGTALKVSCFNVRFCLKADGKGVLPRKLNFQVELLLDKLKQKGAIRRALFLYSRSPSHSKNMTISRGGLMQCEELIAYLRDESEFRDKLTPITIFMEYRLDYRTAADTTGLQPILNQFTPANISRQAHILLDCGEDNVCKPKLEVSVDSDQKKIYIGDDNPLTLIVKAQNQGEGAYEAELIVSIPLQADFIGVVRNNEALARLSCAFKTENQTRQVVCDLGNPMKAGTQLLAGLRFSVHQQSEMDTSVKFDLQIQSSNLFDKVSPVVSHKVDLAVLAAVEIRGVSSPDHIFLPIPNWEHKENPETEEDVGPVVQHIYELRNNGPSSFSKAMLHLQWPYKYNNNTLLYILHYDIDGPMNCTSDMEINPLRIKISSLQTTEKNDTVAGQGERDHLITKRDLALSEGDIHTLGCGVAQCLKIVCQVGRLDRGKSAILYVKSLLWTETFMNKENQNHSYSLKSSASFNVIEFPYKNLPIEDITNSTLVTTNVTWGIQPAPMPVPVWVIILAVLAGLLLLAVLVFVMYRMGFFKRVRPPQEEQEREQLQPHENGEGNSET
chain 2: GPNICTTRGVSSCQQCLAVSPMCAWCSDEALPLGSPRCDLKENLLKDNCAPESIEFPVSEARVLEDRPLSDKGSGDSSQVTQVSPQRIALRLRPDDSKNFSIQVRQVEDYPVDIYYLMDLSYSMKDDLWSIQNLGTKLATQMRKLTSNLRIGFGAFVDKPVSPYMYISPPEALENPCYDMKTTCLPMFGYKHVLTLTDQVTRFNEEVKKQSVSRNRDAPEGGFDAIMQATVCDEKIGWRNDASHLLVFTTDAKTHIALDGRLAGIVQPNDGQCHVGSDNHYSASTTMDYPSLGLMTEKLSQKNINLIFAVTENVVNLYQNYSELIPGTTVGVLSMDSSNVLQLIVDAYGKIRSKVELEVRDLPEELSLSFNATCLNNEVIPGLKSCMGLKIGDTVSFSIEAKVRGCPQEKEKSFTIKPVGFKDSLIVQVTFDCDCACQAQAEPNSHRCNNGNGTFECGVCRCGPGWLGSQCECSEEDYRPSQQDECSPREGQPVCSQRGECLCGQCVCHSSDFGKITGKYCECDDFSCVRYKGEMCSGHGQCSCGDCLCDSDWTGYYCNCTTRTDTCMSSNGLLCSGRGKCECGSCVCIQPGSYGDTCEKCPTCPDACTFKKECVECKKFDREPYMTENTCNRYCRDEIESVKELKDTGKDAVNCTYKNEDDCVVRFQYYEDSSGKSILYVVEEPECPKGPDILVVLLSVMGAILLIGLAALLIWKLLITIHDRKEFAKFEEERARAKWDTANNPLYKEATSTFTNITYRGT
notes: also called WT αVβ3; cellular αVβ3
B3: WT knottin 2.5F-Fc fusion protein (rEETI 2.5F) (Fc fusion)
chain: GCPRPRGDNPPLTCSQDSDCLAGCVCGPNGFCG
modifications: ends and bridges not checked; also: C-terminal His tag on knottin, fused at C-terminus to human IgG Fc, Fc fusion dimer
notes: The order of His tag and Fc is read from 'c-terminal his-tagged ... fused at the c-terminus to the Fc fragment'; also called WT 2.5F; WT rEETI 2.5F; not shown: C-terminal His tag of the knottin; Fc fragment of human IgG
B4: modified knottin 2.5F M1, Fc fusion (Fc fusion)
chain: B3 chain with N9W, P10N
modifications: ends and bridges not checked; also: C-terminal His tag, number of His and linker not given here, fused at C-terminus to Fc fragment of human IgG
notes: Made by site-directed mutagenesis of the WT rEETI 2.5F construct; tested as culture supernatant; not shown: C-terminal His tag of the knottin; Fc fragment of human IgG
B5: modified knottin 2.5F M, Fc fusion (Fc fusion)
chain: B3 chain with N9W, P10N, P11E, L12G
modifications: ends and bridges not checked; also: C-terminal His tag, number of His and linker not given here, fused at C-terminus to Fc fragment of human IgG
notes: as for B4

In assay [1] the target is B2. Briefly: M21 cells, unlabeled FN10, AP5 read-out by flow cytometry. The method, then: (§1) K562-αVβ3 cells, transiently transfected HEK293T or αVβ3⁺ M21 cells (0.5×10⁶ in 100 μl WB) were incubated in the absence or presence of unlabeled soluble FN10 (5 μg) in Ca²⁺/Mg²⁺ or in Mn²⁺ (30 min; at 25° C.). Alexa647-labeled AP5 Fab (plus Alexa488-labeled AP3, when HEK293T cells were used), unlabeled anti-LIBS-1 (all to 10 μg/ml) or LIBS-6 ascites (to 1:50 dilution) were added, and the cells incubated for an additional 30 min before washing. APC-labeled goat anti-mouse Fc-specific antibody was added to anti-LIBS-1- or anti-LIBS-6-bound M21 cells, cells were incubated for an additional 30 min at 4° C. then washed, resuspended, fixed in 4% paraformaldehyde and analyzed by flow cytometry. LIBS epitope expression was measured and expressed as MFI (in case of K562-αVβ3 or M21 cells) and normalized (in case of HEK293T cells) by dividing its MFI by the MFI for Alexa488-labeled AP3, and multiplied by 100.
A general note: In flow cytometry, cells or beads pass a laser one at a time.

The target of assay [2] is T1, wild-type 10th type-III RGD-domain of human fibronectin (wtFN10) (human, UniProt P02751 1539-1631).
T1 construct: Expressed in bacteria with an N-terminal His tag (S1417-T1509) and a thrombin cleavage site; also called wild-type FN10
The description is as above. The method, then: as §1

In assay [3] the target is B2. Briefly: flow cytometry on K562-αVβ3, culture supernatant, fluoresceinated anti-human Fc mAb, Ca2+/Mg2+. The method, then: (§2) Binding of soluble knottin dimers to αVβ3-K562 cells was expressed as mean fluorescence intensity (MFI), as determined using FlowJo software. […] Alexa647-labeled mAb AP5 Fab (10 μg/ml) was added, and cells incubated for an additional 30 min before washing. APC-labeled goat anti-mouse Fc-specific antibody was added to anti-LIBS-1- or anti-LIBS-6-bound M21 cells for an additional 30 min at 4° C. Cells were then washed, resuspended, fixed in 4% paraformaldehyde and analyzed by flow cytometry. AP5 epitope expression was measured and expressed as MFI.
as §2, with “Cells were washed, resuspended, fixed in 4% paraformaldehyde, and analyzed using FACSCalibur or BD-LSRII flow cytometers (BD Biosciences). Binding” for “Binding”, “Fe-specific” for “Fc-specific”

Changes are numbered by the printed parent chain. No end group written: not given here.

On to B1, for which the binding result in assay [1] is recorded as “binds”. With B2, the binding result in assay [2] is recorded as “binds”.

As to B3, in assay [3], the binding result is recorded as “binds”. Same read-out and setting: as for B4, the entry is “binds”. The same measure, in the same setting: the value for B5 was “binds”.

Values taken from US20170044236A1 (GENERAL HOSPITAL, published 2017).
